We go through two compounds from article PMC11751051 (Frontiers in Molecular Biosciences, 2025).

One may read the stoichiometry N as the number of molecules, sites or subunits per partner or assembly. One may read the pKd as the negative decadic logarithm of the Kd, by convention in mol/L. A lower pKd goes with a large Kd.

Assay [1] addresses GFP-OhyA (green fluorescent protein-oleate hydratase chimeric protein) (Staphylococcus aureus). Kind of assay: SEC-MALS; Superose 6 Increase 10/300 GL; 20 mM Tris, 200 mM NaCl, pH 7.6; 100 uL of GFP-OhyA (2 mg/mL) injected at 0.5 mL/min, 25 °C. (In gel filtration, larger molecules generally elute earlier.)
The target in assay [2] is T1, GFP-OhyA (Staphylococcus aureus, UniProt Q2G1P3, M1A).
T1 construct: gene SAOUHSC_00061
The experiment in a line: biochemical.

pKd: −log10 of the molar value.

Regarding “GFP-OhyA (green fluorescent protein-oleate hydratase chimeric protein) (enzyme)”, in assay [1], the percent dimer came out at 80.6% and the stoichiometry N came to 2.
In turn, `CCCCCCCC/C=C\CCCCCCCC(=O)OC[C@H](COP(=O)(O)OCC(O)CO)OC(=O)CCCCCCC/C=C\CCCCCCCC` (stereo partly drawn) [DOPG] showed a pKd in assay [2] of 7.10.
